Results as given in patent US20250009876A1 (H LUNDBECK A S, published 2025).
Where two headings read alike, the source gives them in different places.

Experiments:
[1] = target: T1, PAC1-R on PAC1-R-expressing PC-12 cells (UniProt P32215 20-523); experiment: cell surface binding assay (DELFIA TRF): antibody pre-incubated with PACAP38, added to PAC1-R-expressing PC-12 cells, detected with Eu anti-human IgG
T1 construct: whole, on cells; also called PAC1 receptor
T1 sequence (looked up): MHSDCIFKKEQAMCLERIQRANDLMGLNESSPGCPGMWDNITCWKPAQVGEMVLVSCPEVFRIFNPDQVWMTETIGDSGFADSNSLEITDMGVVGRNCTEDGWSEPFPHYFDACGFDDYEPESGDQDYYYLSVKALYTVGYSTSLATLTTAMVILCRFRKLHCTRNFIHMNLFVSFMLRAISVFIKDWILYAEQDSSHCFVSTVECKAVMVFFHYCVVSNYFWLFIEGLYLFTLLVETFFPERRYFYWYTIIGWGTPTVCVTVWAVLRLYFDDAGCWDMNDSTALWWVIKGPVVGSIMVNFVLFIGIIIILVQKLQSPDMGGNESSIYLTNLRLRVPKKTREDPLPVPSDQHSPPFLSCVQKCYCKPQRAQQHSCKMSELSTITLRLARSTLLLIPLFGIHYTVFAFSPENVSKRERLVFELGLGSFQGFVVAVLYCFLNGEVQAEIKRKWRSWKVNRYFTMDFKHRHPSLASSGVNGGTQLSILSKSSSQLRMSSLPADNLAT
Protocol: Cells were initially seeded at 1×10⁵ cells/well in a solution of complete RPMI (“cRPMI”: RPMI medium supplemented with 10% sterile heat-inactivated FBS and 1% sterile antibiotic/antimycotic)+10% FBS, and the plates were allowed to incubate overnight at 37° C. On the day of the binding assay, antibodies at an initial concentration of 15 μg/ml were diluted at a 1:3 ratio in DELFIA® binding buffer (50 mM Tris, 150 mM NaCl, 0.1% azide, 2% horse serum) (Perkin-Elmer, Waltham, MA) to a total volume of 60 μL in a separate 96 well round bottom plate. PACAP38 was prepared for the binding assay by diluting it in DELFIA® binding buffer to a concentration of 200 nM, and then 60 μl of the diluted PACAP38 was added to each of the antibody-containing wells to form antibody: antigen complexes. Following addition of PACAP38, the antibody: antigen complexes were incubated at room temperature on a shaker for 1 hour. Separately, the PC-12 cells were prepared for addition of antibody: antigen complexes by washing the cells two times with DELFIA® wash buffer (50 mM Tris, 150 mM NaCl, 0.1% Azide) (Perkin-Elmer, Waltham, MA). After washing the cells two times and following the 1 hour room temperature incubation of the antibody: antigen complexes, 50 μl of the antibody: antigen complex was added to each well containing cells. The mixtures of cells and antibody: antigen complexes were then incubated for 30 minutes at room temperature. Following this 30 minute incubation, each mixture was washed two times with DELFIA® wash buffer (Perkin-Elmer, Waltham, MA).
DELFIA® Europium labeled anti-human IgG detection reagent (Cat #1244-330, Perkin-Elmer, Waltham, MA) was diluted to a concentration of 300 ng/ml in DELFIA® Binding Buffer. Following dilution, 50 μl of the anti-human IgG detection reagent was added to each well containing cells, and a 30 minute incubation at room temperature followed this addition of IgG detection reagent. After completion of the 30 minute room temperature incubation, the cells were then washed two times with DELFIA® wash buffer. Next, 50 μl of DELFIA® Enhancement Solution (Cat #1244-105, Perkin-Elmer, Waltham, MA) was added to each well containing cells for a final 15 minute room temperature incubation with shaking. The plates were then read (TRF, excitation 330 nm, emission 620 nm) on a SPECTRAMAX® (Molecular Devices, Sunnyvale, CA) plate reader.

[2] = target: T2, PACAP27 (Pituitary Adenylate Cyclase-Activating Polypeptide, 27 amino acids) (human, the C-terminal leucine is amidated); experiment: cell-based or functional assay
T2 peptide: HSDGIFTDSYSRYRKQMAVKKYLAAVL

[3] = target: T3, PACAP38 (Pituitary Adenylate Cyclase-Activating Polypeptide, 38 amino acids) (human, not fully specified; the C-terminal lysine is amidated); experiment: cell-based or functional assay
T3 peptide: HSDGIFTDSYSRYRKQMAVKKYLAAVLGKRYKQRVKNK

[4] = target: T4, VIP (Vasoactive Intestinal Peptide) (human); experiment: SPR (ProteOn XPR36), antibody amine-coupled, peptide analyte, 1:1 Langmuir fit
T4 construct: also called human VIP
T4 peptide: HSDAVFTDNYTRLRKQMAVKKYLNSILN

[5] = target: T2, PACAP27 (Pituitary Adenylate …); experiment: as above
Protocol: (§1) Binding affinities of monoclonal antibodies for human PACAP were estimated using SPR on the PROTEON™ XPR36 (Bio-Rad, Hercules, CA). Antibody was immobilized to the surface of general amine coupling (“GLC” or “GLM”) Chips (Bio-Rad, Hercules, CA). […] Antigen (ranging from 1.23 nM to 100 nM) was typically run sequentially with association times of 2-4 minutes and dissociation times of 3-120 minutes grouped with the PROTEON™ Manager Software (v3.1.0.6 (Bio-Rad, Hercules, CA)) and fitted using a 1:1 Langmuir binding model. Surfaces were regenerated between analyte queries using 0.85% Phosphoric Acid.

[6] = target: T3, PACAP38 (Pituitary Adenylate …); experiment: as above
Protocol: as §1

[7] = target: T2, PACAP27 (Pituitary Adenylate …); experiment: as above
Protocol: (§2) Binding affinities of monoclonal antibodies for human PACAP were estimated using SPR on the PROTEON™ XPR36 (Bio-Rad, Hercules, CA). Antibody was immobilized to the surface of general amine coupling (“GLC″ or “GLM”) Chips (Bio-Rad, Hercules, CA). […] Antigen (ranging from 1.23 nM to 100 nM) was typically run sequentially with association times of 2-4 minutes and dissociation times of 3-120 minutes grouped with the PROTEON™ Manager Software (v3.1.0.6 (Bio-Rad, Hercules, CA)) and fitted using a 1:1 Langmuir binding model. Surfaces were regenerated between analyte queries using 0.85% Phosphoric Acid, 0.5% SDS, and 0.1N NaOH.

[8] = target: T3, PACAP38 (Pituitary Adenylate …); experiment: as above
Protocol: as §2

[9] = target: T4, VIP (Vasoactive Intestinal Peptide); experiment: as above
[10] = target: T3, PACAP38 (Pituitary Adenylate …); experiment: cell-based or functional assay
[11] = target: T3, PACAP38 (Pituitary Adenylate …); experiment: cell-based or functional assay

Row | binding result [1] | Inhibition of 1 nM PACAP27-induced PAC1-R mediated cAMP increase IC50 (pM) [2] [pM] | Inhibition of 0.1 nM PACAP38-induced PAC1-R mediated cAMP increase IC50 (pM) [3] [pM] | Kd [4] [nM] | koff [4] [s⁻¹] | kon [4] [M⁻¹ s⁻¹] | Kd [5] [nM] | koff [5] [s⁻¹] | kon [5] [M⁻¹ s⁻¹] | Kd [6] [nM] | koff [6] [s⁻¹] | kon [6] [M⁻¹ s⁻¹] | Kd [7] [nM] | koff [7] [s⁻¹] | kon [7] [M⁻¹ s⁻¹] | Kd [8] [nM] | koff [8] [s⁻¹] | kon [8] [M⁻¹ s⁻¹] | Kd [9] [nM] | koff [9] [s⁻¹] | Binder | other results
1 | no binding (tested: about 70 nM) |  |  |  |  |  |  |  |  |  |  |  |  |  |  |  |  |  |  |  | Ab23 (antibody, human IgG1, kappa, N297A, V domains shown, Full-length anti-PACAP antibody; rabbit/human chimeric) VH: QSVEESGGRLVTPGTPLTLTCTVSGFSLNNYAMSWVRQAPGKGLEWIGIMGVNDITYYASWAKGRFTISKTSTTVDLKMTSLTTEDTATYFCTREIRDDGDSSDKLWGPGTLVTVSS VL: AIKMTQTPSSVSAAVGGTVTINCQASEDIYTNLAWYQQKPGQPPNLLIYDASDLASGVPSRFSGSGDGTQFTLTISAVQCEDAATYYCQGVAWSSNTGYGSAFGGGTEVVVKR | 
2 | no binding (tested: about 70 nM) | 733 | 22.7 |  |  |  |  |  |  |  |  |  |  |  |  |  |  |  |  |  | Ab10.H5 (antibody, human IgG1, kappa, N297A, Full-length humanized variant of Ab10) heavy: not shown light: QLTQSPSTLSASVGDRVTITCQSSESVYGNYLAWFQQKPGKAPKFLIYEASKLESGVPSRFSGSGSGTEFTLTISSLQPDDFATYYCAGGDISEGVAFGGGTKVEIKRTVAAPSVFIFPPSDEQLKSGTASVVCLLNNFYPREAKVQWKVDNALQSGNSQESVTEQDSKDSTYSLSSTLTLSKADYEKHKVYACEVTHQGLSSPVTKSFNRGEC | 
3 |  | 275 | 83.4 |  |  |  |  |  |  |  |  |  | ≤ 0.0351 | ≤ 1e-05 | 285000 | ≤ 0.0238 | ≤ 1e-05 | 420000 | 523 | 0.0289 | Ab21.H4 (antibody, human IgG1, kappa, N297A, Full-length humanized variant of Ab21) heavy: not shown light: DIVLTQSPSTLSASVGDRVTITCKSSESVYGDYLAWFQQKPGKAPKQLIYDASTLASGVPSRFSGSGSGTEFTLTISSLQPDDFATYYCAGGYVSAGVAFGGGTKVEIKRTVAAPSVFIFPPSDEQLKSGTASVVCLLNNFYPREAKVQWKVDNALQSGNSQESVTEQDSKDSTYSLSSTLTLSKADYEKHKVYACEVTHQGLSSPVTKSFNRGEC | kon [9]: 55300 M⁻¹ s⁻¹; Inhibition of 5 nM PACAP38-induced human VPAC1-R mediated cAMP increase IC50 (pM) [10]: 2830 pM; Inhibition of 1 nM PACAP38-induced human VPAC2-R mediated cAMP increase IC50 (pM) [11]: 2880 pM

The next lines start with the binder.

Row | Binder | binding result [1] | Inhibition of 1 nM PACAP27-induced PAC1-R mediated cAMP increase IC50 (pM) [2] [pM] | Inhibition of 0.1 nM PACAP38-induced PAC1-R mediated cAMP increase IC50 (pM) [3] [pM] | Kd [4] [nM] | koff [4] [s⁻¹] | kon [4] [M⁻¹ s⁻¹] | Kd [5] [nM] | koff [5] [s⁻¹] | kon [5] [M⁻¹ s⁻¹] | Kd [6] [nM] | koff [6] [s⁻¹] | kon [6] [M⁻¹ s⁻¹] | Kd [7] [nM] | koff [7] [s⁻¹] | kon [7] [M⁻¹ s⁻¹] | Kd [8] [nM] | koff [8] [s⁻¹] | kon [8] [M⁻¹ s⁻¹] | Kd [9] [nM] | koff [9] [s⁻¹] | other results
4 | Ab10.H2 (antibody, human IgG1, kappa, N297A, Full-length humanized variant of Ab10) heavy: not shown light: AVLTQSPSTLSASVGDRVTITCQSSESVYGNYLAWFQQKPGKAPKFLIYEASKLESGVPSRFSGSGSGTEFTLTISSLQPDDFATYYCAGGDISEGVAFGGGTKVEIKRTVAAPSVFIFPPSDEQLKSGTASVVCLLNNFYPREAKVQWKVDNALQSGNSQESVTEQDSKDSTYSLSSTLTLSKADYEKHKVYACEVTHQGLSSPVTKSFNRGEC | no binding (tested: about 70 nM) | 466 | 21.3 | 230 | 0.046 | 200000 | 0.078 | 1.7e-05 | 210000 | 0.022 | 1.4e-05 | 630000 |  |  |  |  |  |  |  |  | 
5 | Ab10.H4 (antibody, human IgG1, kappa, N297A, Full-length humanized variant of Ab10) heavy: not shown light: DIVLTQSPSTLSASVGDRVTITCQSSESVYGNYLAWFQQKPGKAPKFLIYEASKLESGVPSRFSGSGSGTEFTLTISSLQPDDFATYYCAGGDISEGVAFGGGTKVEIKRTVAAPSVFIFPPSDEQLKSGTASVVCLLNNFYPREAKVQWKVDNALQSGNSQESVTEQDSKDSTYSLSSTLTLSKADYEKHKVYACEVTHQGLSSPVTKSFNRGEC | no binding (tested: about 70 nM) | 329 | 22.8 | 98 | 0.015 | 150000 | 0.093 | 1.7e-05 | 190000 | ≤ 0.019 | ≤ 1e-05 | 530000 |  |  |  |  |  |  |  |  | 
6 | Ab21.H3 (antibody, human IgG1, kappa, N297A, Full-length humanized variant of Ab21) heavy: not shown light: DIQLTQSPSTLSASVGDRVTITCKSSESVYGDYLAWFQQKPGKAPKQLIYDASTLASGVPSRFSGSGSGTEFTLTISSLQPDDFATYYCAGGYVSAGVAFGGGTKVEIKRTVAAPSVFIFPPSDEQLKSGTASVVCLLNNFYPREAKVQWKVDNALQSGNSQESVTEQDSKDSTYSLSSTLTLSKADYEKHKVYACEVTHQGLSSPVTKSFNRGEC |  | 318 | 65.3 |  |  |  |  |  |  |  |  |  | ≤ 0.0311 | ≤ 1e-05 | 322000 | ≤ 0.0223 | ≤ 1e-05 | 449000 | 424 | 0.0249 | kon [9]: 58700 M⁻¹ s⁻¹; Inhibition of 5 nM PACAP38-induced human VPAC1-R mediated cAMP increase IC50 (pM) [10]: 2520 pM; Inhibition of 1 nM PACAP38-induced human VPAC2-R mediated cAMP increase IC50 (pM) [11]: 1530 pM
